Patent publication US20090252748A1 (Biogen, published 2009)
Each block holds one binder with its values, some of them ahead of it.

Experiments:
Ig region of Sp35 = biological target: T1, Ig region of Sp35 (Homo sapiens (Human), UniProt Q96FE5 425-499); assay: ELISA
T1 sequence: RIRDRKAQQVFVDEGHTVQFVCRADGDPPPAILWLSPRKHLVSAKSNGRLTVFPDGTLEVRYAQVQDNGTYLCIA
Procedure: Ovalbumin and BSA were used as controls. […] The affinity of these latter antibodies for mouse and rat Sp35 was restored to the level seen using human Sp35 when amino acid 419 of the mouse or rat Sp35 is changed from histidine (H) to arginine (R). Arginine is the amino acid at position 419 in human Sp35. […] AP substrate was then developed by 10 mg/ml 4 NPP in 0.1 M Glycine, 1 mM MgCl₂, 1 mM ZnCl₂, pH 10.5, and read at O.D. 405.
In similar experiments, monoclonal antibodies 3B5.2 and 7P1D5.1G9, as well as the Fab fragment of the 7P1D5.1G9 antibody were tested in ELISA assays for their ability to bind human Sp35, the entire LRR region of Sp35, the Ig region of Sp35 and murine Sp35. […] The 3B5.2 and 7P1D5. 1G9 monoclonal antibodies also bound the LRR region of Sp35.

[1] = biological target: T2, human Sp35 protein expressed on transfected cells (human, UniProt Q96FE5 40-620); assay: FACS direct binding, CHO cells stably transfected with human Sp35 (LINGO-1), mean fluorescence (MCF) against antibody concentration [panel Human]
T2 construct: also called huSp35; hLINGO-1
T2 sequence: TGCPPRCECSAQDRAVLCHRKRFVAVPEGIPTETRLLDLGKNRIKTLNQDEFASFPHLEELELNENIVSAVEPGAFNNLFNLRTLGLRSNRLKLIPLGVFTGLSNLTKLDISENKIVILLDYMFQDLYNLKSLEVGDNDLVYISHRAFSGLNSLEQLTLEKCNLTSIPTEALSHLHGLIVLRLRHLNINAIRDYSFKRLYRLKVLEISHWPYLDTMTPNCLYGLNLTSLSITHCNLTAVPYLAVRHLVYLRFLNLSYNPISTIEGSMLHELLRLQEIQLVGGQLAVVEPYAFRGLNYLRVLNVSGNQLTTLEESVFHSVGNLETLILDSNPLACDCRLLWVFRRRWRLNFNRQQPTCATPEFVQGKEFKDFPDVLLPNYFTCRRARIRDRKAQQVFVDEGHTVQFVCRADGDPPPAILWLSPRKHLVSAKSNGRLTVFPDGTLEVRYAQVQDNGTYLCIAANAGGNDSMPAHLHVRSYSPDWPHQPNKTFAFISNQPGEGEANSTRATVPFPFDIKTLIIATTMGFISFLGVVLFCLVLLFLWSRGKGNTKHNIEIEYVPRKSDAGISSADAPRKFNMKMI
Procedure: (§1) In similar experiments, CHO cells stably transfected with Sp35 were used in FACS analysis to further characterize the binding properties of 3B5.2 and 7P1D5.1G9. […] Specifically, the 3B5.2 and 7P1D5.1G9 antibodies were tested for their ability to bind CHO cells transfected with, and expressing, human or murine Sp35. […] Additionally, the 3B5.2 antibody bound more cells as measured by the mean fluorescence (MCF) than 7P1D5.1G9.

[2] = biological target: T3, mouse Sp35 protein expressed on transfected cells (mouse, UniProt Q9D1T0 36-614); assay: FACS direct binding, CHO cells stably transfected with murine Sp35 (LINGO-1), mean fluorescence (MCF) against antibody concentration [panel Murine]
T3 construct: whole, on cells; also called mSp35; mLINGO-1
T3 sequence (looked up): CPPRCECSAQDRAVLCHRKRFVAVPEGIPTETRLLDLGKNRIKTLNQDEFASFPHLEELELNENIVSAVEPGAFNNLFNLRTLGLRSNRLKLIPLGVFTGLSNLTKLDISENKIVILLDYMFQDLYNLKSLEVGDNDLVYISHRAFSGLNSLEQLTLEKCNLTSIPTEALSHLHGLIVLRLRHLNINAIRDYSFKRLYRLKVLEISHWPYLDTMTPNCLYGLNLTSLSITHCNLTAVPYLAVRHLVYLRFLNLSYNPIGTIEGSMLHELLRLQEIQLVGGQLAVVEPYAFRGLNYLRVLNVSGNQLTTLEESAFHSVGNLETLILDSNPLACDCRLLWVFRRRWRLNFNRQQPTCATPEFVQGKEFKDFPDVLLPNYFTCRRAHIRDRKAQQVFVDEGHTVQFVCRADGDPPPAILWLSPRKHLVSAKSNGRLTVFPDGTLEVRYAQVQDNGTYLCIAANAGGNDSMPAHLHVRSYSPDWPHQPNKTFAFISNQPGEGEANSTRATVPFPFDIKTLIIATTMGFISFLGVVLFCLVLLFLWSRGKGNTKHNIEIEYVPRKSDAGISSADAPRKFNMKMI
Procedure: as §1

[3] = biological target: T4, mouse Sp35 protein (ELISA, Western, KD; form not stated) (mouse, UniProt Q9D1T0 34-532, limits assumed); assay: method not stated
T4 construct: also called mSp35; mLINGO1
T4 sequence (looked up): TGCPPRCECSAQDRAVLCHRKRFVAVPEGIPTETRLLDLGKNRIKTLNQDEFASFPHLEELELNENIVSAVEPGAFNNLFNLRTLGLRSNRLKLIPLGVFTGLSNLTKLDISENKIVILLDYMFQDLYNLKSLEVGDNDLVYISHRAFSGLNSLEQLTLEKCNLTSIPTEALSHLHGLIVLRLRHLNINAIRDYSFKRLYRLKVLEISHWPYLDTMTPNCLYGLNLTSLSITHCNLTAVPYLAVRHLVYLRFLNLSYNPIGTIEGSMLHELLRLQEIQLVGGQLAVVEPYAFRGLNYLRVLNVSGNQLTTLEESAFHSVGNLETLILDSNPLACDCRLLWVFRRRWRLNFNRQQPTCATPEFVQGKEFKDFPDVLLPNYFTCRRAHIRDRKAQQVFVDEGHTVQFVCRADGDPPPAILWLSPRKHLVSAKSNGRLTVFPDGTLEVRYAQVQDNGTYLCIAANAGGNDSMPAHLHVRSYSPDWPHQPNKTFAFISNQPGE

[4] = biological target: T5, human Sp35 protein (ELISA, Western, KD; form not stated) (human, UniProt Q96FE5 40-538, limits assumed); assay: method not stated
T5 construct: also called huSp35; hLINGO-1
T5 sequence: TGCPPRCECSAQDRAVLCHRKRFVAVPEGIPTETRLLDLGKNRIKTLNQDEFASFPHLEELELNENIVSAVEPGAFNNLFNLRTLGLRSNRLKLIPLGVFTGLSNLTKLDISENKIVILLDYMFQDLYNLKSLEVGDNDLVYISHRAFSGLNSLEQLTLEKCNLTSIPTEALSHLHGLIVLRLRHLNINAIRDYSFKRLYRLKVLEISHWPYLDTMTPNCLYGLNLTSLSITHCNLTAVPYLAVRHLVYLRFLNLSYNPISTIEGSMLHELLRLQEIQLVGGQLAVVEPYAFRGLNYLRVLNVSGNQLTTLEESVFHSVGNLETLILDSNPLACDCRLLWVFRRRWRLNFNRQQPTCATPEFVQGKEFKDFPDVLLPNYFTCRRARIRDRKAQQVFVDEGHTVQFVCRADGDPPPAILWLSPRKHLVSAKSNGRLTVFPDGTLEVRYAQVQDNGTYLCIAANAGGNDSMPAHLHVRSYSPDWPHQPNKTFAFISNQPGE

[5] = biological target: T5, human Sp35 protein (ELISA, Western, KD; …); assay: method not stated; second figure of the same phrase, inconsistent with the 10 nM already written
[6] = biological target: T6, Sp35 fragment 417-498 human Fc (human, UniProt Q96FE5 423-504); assay: fragment binding
T6 construct: not shown: Fc, printed 'human Fc'
T6 sequence: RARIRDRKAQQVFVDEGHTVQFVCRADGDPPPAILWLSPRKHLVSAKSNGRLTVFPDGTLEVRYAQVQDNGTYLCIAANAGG

AP-Sp35 (418-498) = biological target: T7, AP-Sp35 (418-498) (Homo sapiens (Human), UniProt Q96FE5 424-504); assay: fragment binding
T7 sequence: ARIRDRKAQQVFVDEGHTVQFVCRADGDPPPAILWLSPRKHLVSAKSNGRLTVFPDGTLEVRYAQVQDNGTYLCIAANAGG

binding result (Ig region of Sp35): no binding | EC50 (read off the curve) [1]: ~0.4 nM | EC50 (read off the curve) [2]: ~0.4 nM
B1: 3B5.2 monoclonal antibody (ATCC PTA-8106) (antibody, mouse IgG1, V domains shown)
VH: QVQLQQPGAELVRPGTSVKLSCRASGYTFTSYWMHWVKQRPGQGLEWIGVIDPSDSYTNYNQKFRGKATLTVDTSSSTAYMQLSSLTSEDSAVYYCARPYYGSHWFFDVWGTGTTVTVSS
VL: QIVLTQSPAIMSASPGEKVTMTCSASSRVSYVHWYQQKSGTSPKRWLYDTSNLASGVPARFGGNGSGTSYSLTISSMEAEDAATYYCQQWSTNPPTFGGGTKLEIK
modifications: N-linked glycosylation site in FR3 (appears glycosylated)
notes: murine IgG1/kappa; also called 2.P3B5.2

Kd [3]: 20000 nM | Kd [4]: 10 nM | Kd [5]: 1 nM
B2: 1A7 monoclonal antibody (antibody, mouse IgG1, V domains shown)
VH: QVQLVQSGPELKKPGETVKISCKASGYTFTNYGMNWVKQAPGKGLKWMGWINTDTGEPTYTEDFQGRFAFSLETSASTVYLQFNNLKNEDTATYFCAREGVHFDYWGQGTTVTVSS
VL: QIVLTQSPAIMSASPGEKVTMTCSASSSVSYMHWYQQKSGTSPKRWIYDTSKLASGVPARFSGSGSGTSYSLTISSMEAEDAATYYCQQWSSNPFTFGSGTKLEIK
notes: murine IgG1/kappa; also called P1A7; 1A7 mAb

binding result [6]: no binding
B3: D13 (full-length antibody with the Li13 variable region) (antibody, V domains shown)
VH: EVQLLESGGGLVQPGGSLRLSCAASGFTFSHYEMYWVRQAPGKGLEWVSRIVSSGGFTKYADSVKGRFTISRDNSKNTLYLQMNSLRAEDTAVYYCATEGDNDAFDIWGQGTTVTVSS
VL: DIQMTQSPATLSLSPGERATLSCRASQSVSSYLAWYQQKPGQAPRLLIYDASNRATGIPARFSGSGSGTDFTLTISSLEPEDFAVYYCQQRSNWPMYTFGQGTKLEIK
notes: also called 72-D03 (Dli13) Ab

binding result (AP-Sp35 (418-498)): no binding
B4: D06 (full-length antibody with the Li06 variable region) (antibody, V domains shown)
VH: EVQLLESGGGLVQPGGSLRLSCAASGFTFSEYPMDWVRQAPGKGLEWVSSIYSSGGSTVYADSIKGRFTISRDNSKNTLYLQMNSLRAEDTAVYYCAREGDSDAFDIWGQGTMVTVSS
VL: DIQMTQSPSTLSASVGDRVTITCRASQSISSWLAWYQQKPGKAPNLLIYAASSLRTGVPSRFRGSGSGTDFTLTISSLQPEDFATYYCLQDYSYPLTFGQGTKLEIK
notes: also called 34-F02 (Dli06) Ab
